Assay results: US20230181748A1, “MEANS AND METHODS FOR THE TREATMENT OF PATHOLOGICAL AGGREGATION” (priority 2020, published 2023)

What was measured:
Tau aggregates = Tau aggregates (Homo sapiens, UniProt P10636); experiment: hetero-dimeric tandem capping peptide screen, Tau biosensor cell line; assay type: cell-based; conditions: 625 nM capping peptide, 50 nM Tau seeds, 24 hours
Sup35-NM aggregates = biological target: T1, Sup35-NM aggregates (Saccharomyces cerevisiae, UniProt P05453); experiment: hetero-dimeric tandem capping peptide screen, NM biosensor cell line; assay type: cell-based; conditions: 625 nM capping peptide, 50 nM NM seeds, 24 hours
T1 sequence (P05453 1-253 limits assumed): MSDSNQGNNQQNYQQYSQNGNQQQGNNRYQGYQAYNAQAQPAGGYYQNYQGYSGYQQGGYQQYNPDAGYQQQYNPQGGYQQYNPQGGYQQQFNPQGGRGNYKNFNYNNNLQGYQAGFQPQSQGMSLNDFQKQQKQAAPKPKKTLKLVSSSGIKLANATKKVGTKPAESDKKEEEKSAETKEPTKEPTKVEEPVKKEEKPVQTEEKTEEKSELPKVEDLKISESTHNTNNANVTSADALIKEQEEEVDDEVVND

Aβ fibrils = biological target: T2, Aβ fibrils (Homo sapiens, UniProt P05067); experiment: in vitro Aβ seeding aggregation assay (Th-T); assay type: biochemical; conditions: fibrils 10 μM preincubated with 50 μM capping peptide approx. 4 hours; 10% added to 10 μM monomeric Aβ
T2 construct: mixed with preformed, sonicated Aβ aggregates (2 μM)
T2 sequence (P05067 672-713 limits assumed): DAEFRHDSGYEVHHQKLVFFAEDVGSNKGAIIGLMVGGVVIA
Description: Capping peptides from Table 6 were freshly dissolved in DMSO (stock concentration 1 mM) and filtered before the assay. 1 μL peptide capping solution was mixed with 19 μL preformed, sonicated Aβ fibrils (stock concentration 10 μM). As such, this mixture contained 10 μM Aβ fibrils and 50 μM capping peptide and was incubated for approx. 4 hours. Next, freshly dissolved monomeric Aβ was prepared by separation on a column. This monomeric Aβ (final concentration 10 μM) was mixed with 10% of the Aβ fibrils-peptide mixture and Th-T was added to monitor aggregation.

Aβ aggregates = biological target: T3, Aβ aggregates (Homo sapiens, UniProt P05067); experiment: Aβ biosensor screening assay; assay type: cell-based; conditions: for capping activity of single capping sequence across all hetero-tandem peptides: analysis of all tandems containing the single sequence (FIG. 22); for relative number of cells positive for induced Aβ aggregation (seeding capacity of Aβ seeds): 100 nM Aβ aggregates on cells, concentration range of capping peptide
T3 construct: mixed with preformed, sonicated Aβ aggregates (2 μM)
T3 sequence (P05067 672-713 limits assumed): as above
Description: Hetero-tandem capping peptides depicted in Table 5 were dissolved in DMSO, filtered and mixed with preformed, sonicated Aβ aggregates (2 μM). This mixture was incubated for approx. 4 hours and transfected into Aβ biosensor cells. Aβ biosensor cells stably express soluble Aβ-mCherry and Aβ aggregation can be induced by transfecting preformed Aβ aggregates in these cells (FIG. 17). The final concentration of Aβ aggregates on the cells is 100 nM and a concentration range of capping peptides was used. In other words, the condition in which no seeds are added is shown as 0, while the condition in which 100 nM Aβ aggregates are added (without capping peptides) is shown as 1.

preformed tau aggregates [1] = biological target: T4, preformed tau aggregates (Homo sapiens, UniProt P10636); experiment: tau biosensor seeding assay; assay type: cell-based; conditions: 20 hours after transfection; for fraction of cells with green spots (induced tau aggregation) / fraction of cells with red spots (exogenous preformed tau aggregates): single concentration 500 nM on cells, 200 nM preformed tau aggregates
T4 sequence (P10636 1-441 isoform P10636-8): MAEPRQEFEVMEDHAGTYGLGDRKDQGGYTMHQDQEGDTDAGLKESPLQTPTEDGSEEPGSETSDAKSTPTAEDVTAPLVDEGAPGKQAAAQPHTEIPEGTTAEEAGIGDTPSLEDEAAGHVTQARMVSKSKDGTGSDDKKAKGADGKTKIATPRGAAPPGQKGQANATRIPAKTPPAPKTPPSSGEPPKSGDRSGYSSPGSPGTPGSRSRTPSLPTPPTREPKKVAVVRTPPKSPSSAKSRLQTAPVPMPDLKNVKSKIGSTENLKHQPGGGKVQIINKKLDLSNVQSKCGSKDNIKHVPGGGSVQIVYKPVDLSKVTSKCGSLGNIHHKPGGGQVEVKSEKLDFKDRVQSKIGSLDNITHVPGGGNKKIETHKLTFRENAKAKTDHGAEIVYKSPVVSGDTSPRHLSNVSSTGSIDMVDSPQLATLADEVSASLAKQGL
Description: The 33 different non-natural molecules (with a final concentration of 10 μM) were mixed with preformed (sonicated) tau aggregates (with a final concentration of 4 μM). The preformed tau aggregates are labeled with a far-red atto-633 dye to monitor the efficiency of cellular uptake and degradation. After an incubation of 6 hours the resulting non-natural molecule—tau aggregate mixture was transfected in tau biosensor cells (described in Holmes et al (2014) Proc Natl Acad Sci USA. 111(41): E4376-E4385). The tau biosensor cell line is a monoclonal FRET biosensor HEK293T cell line stably expressing both the tau repeat domain (RD) fused to the fluorescent protein CFP and the tau repeat protein fused to the fluorescent protein YFP. Without the addition of preformed tau seeds, the biosensor cells stably express diffuse tau (soluble). However, exposure to exogenous preformed tau aggregates induces tau aggregation, generating a FRET signal with the CFP-YFP pair, intensifying the fluorescent signal in the tau inclusions. The FRET signal allows to distinguish the tau aggregate formation from the monomeric background. The use of phospholipids (e.g. lipofectamine—Source: Thermofisher) for the transfection of exogenous tau aggregates maximizes the aggregate inducing capacity.
The final peptide concentration of the non-natural molecules applied on the cells is 500 nM and the final concentration of preformed tau aggregates is 200 nM. 20 hours after transfection cells were fixed and two readouts were used to quantify the activities of the non-natural molecules: • determination of the fraction of cells with green spots: these are the cells that have induced tau aggregation. • determination of the fraction of cells with red spots: these are the cells that are positive for preformed tau aggregates.
In this example non-natural molecules of the invention were generated based on the sequences of capping peptides CAP1_TR and HET (sequences depicted in column 2 in Table 2). A tau biosensor seeding assay was performed with a concentration range of peptides. Thus, the assay is the same as described in example 2 but now a range of concentrations of capping peptides and non-natural molecules comprising the capping peptides were used to incubate with preformed tau aggregates. FIGS. 6 and 7 depict the final concentration of the peptides and derived non-natural molecules applied on the cells (see FIGS. 6 and 7).

preformed tau aggregates [2] = biological target: T4, preformed tau aggregates; experiment: Microscale Thermophoresis (MST) with preformed tau aggregates; assay type: binding
Description: To measure the affinity of the capping peptides, and non-natural molecules derived thereof, with full length tau, we performed Microscale Thermophoresis (MST, Monolith NT.Automated) experiments. Briefly, atto-633-labeled tau monomers or atto-633-labeled preformed tau aggregates were mixed with a concentration range of capping peptides, and non-natural molecules derived thereof, and MST measurement were performed.

preformed tau aggregates [3] = biological target: T4, preformed tau aggregates; experiment: spreading of tau pathology in hTau[P301L] mice; assay type: in vivo; conditions: tau aggregates pretreated 6 hours, injected in hippocampus of hTau[P301L] mice; nine weeks; vs vehicle
Description: In an alternative transgenic murine model preformed tau aggregates are pretreated with the non-natural molecule (SEQ ID NO: 22) and after an incubation of 6 hours, this preformed mixture is injected into the hippocampus of young hTau^[P301L] mice (see Kent BA et al (2017) Brain Behay. 8(1) e00896), which haven't developed any tau pathology yet. Nine weeks after injection mice are sacrificed. Immunohistochemical (IHC) quantification of AT8-positive inclusions in the ipsilateral (injection site) and contralateral hippocampus (opposite site) is conducted. Preformed tau aggregates pretreated with a buffer serve as a control vehicle. We observe that the level of tau pathology spread to the contralateral hippocampus is reduced when the non-natural molecule depicted in SEQ ID NO: 22 is applied as compared to the vehicle.

Chain of Tau aggregates (P10636 1-441 isoform P10636-8): as above

In the case of “EQIINKGSFQIVYK (Capping peptide) [CAP_4D]”, the “fraction of cells with induced aggregates, normalized” value (from here on “fraction of cells … normalized”) (Tau aggregates) is reported as “most performant peptides” and the “specificity for tau aggregation (a-specific effects in Sup35-NM biosensor line)” value (“specificity for tau aggregation” for short) (Sup35-NM aggregates) is reported as “specific for inhibiting tau aggregation”.

For “GWVVIAGSKLKFFA (Capping peptide) [AbCAP19]”, the “seeding capacity of preformed, sonicated Aβ fibrils (Th-T aggregation)” value (“seeding capacity of preformed” below) (Aβ fibrils) was “clear effect on the seeding capacity”.

For KLWFFA (Capping peptide), the “capping activity of single capping sequence across all hetero-tandem peptides” value (Aβ aggregates) was “score well at the highest concentrations”.

“MVGGPVGSKLKFFA (Capping peptide) [AbCap 14]” was tested, and the “relative number of cells positive for induced Aβ aggregation (seeding capacity of Aβ seeds)” value (“relative number of cells positive” for short) (Aβ aggregates) was “effect at the highest concentrations”.

“MVGGVKGSKWVFFP (Capping peptide) [AbCap 11]” was tested, and the “relative number of cells positive” value (Aβ aggregates) was “effect at the highest concentrations”.

For MVWGVV (Capping peptide), the “capping activity of single capping sequence across all hetero-tandem peptides” value (Aβ aggregates) was “score well at the highest concentrations”.

In the case of “MVWGVVGSKLKFFA (Capping peptide) [AbCAP_2]”, the “seeding capacity of preformed” value (Aβ fibrils) is reported as “clear effect on the seeding capacity”.

With “MVWGVVGSKLWFFA (Capping peptide) [AbCAP3]” the “seeding capacity of preformed” value (Aβ fibrils) was “clear effect on the seeding capacity”.

“MVWGVVGSKWVFFA (Capping peptide) [AbCap 4]” was tested, and the “seeding capacity of preformed” value (Aβ fibrils) was “clear effect on the seeding capacity” and the “relative number of cells positive” value (Aβ aggregates) was “concentration-dependent effect”.

In the case of RWQIVYKEGSRWQIVYKR [CAP1_TR], the “fraction of cells with red spots (exogenous tau aggregates; tau aggregate degradation)” value (preformed tau aggregates [1]; concentration range of peptide, tau aggregates pre-treated 6 hours) is reported as “slight reduction in cells positive for red spots in the highest concentration”.

“VQWINKGSVQMVYK (Capping peptide) [CAP_1E]” was tested, and the “fraction of cells … normalized” value (Tau aggregates) was “most performant peptides” and the “specificity for tau aggregation” value (Sup35-NM aggregates) was “specific for inhibiting tau aggregation”.

“VQWINKGSWQIVYK (Capping peptide) [CAP_1A]” was tested, and the “fraction of cells … normalized” value (Tau aggregates) was “most performant peptides” and the “specificity for tau aggregation” value (Sup35-NM aggregates) was “specific for inhibiting tau aggregation”.

For WQIVYKGSVWMINK [HET], the “affinity for tau aggregates compared to tau monomers (MST)” value (preformed tau aggregates [2]; aggregates versus monomers) was “higher affinity for tau aggregates compared to tau-monomers”, the “affinity for tau aggregates (MST)” value (preformed tau aggregates [2]; atto-633-labeled preformed tau aggregates, concentration range) was “measured affinities are significantly higher compared to CAP1_TR variants” and the “fraction of cells with green spots (induced tau aggregation)” value (from here on “fraction of cells with green spots”) (preformed tau aggregates [1]) was “reduced tau aggregation”. The “fraction of cells with red spots (exogenous preformed tau aggregates)” value (“fraction … (exogenous preformed tau aggregates)” below) (preformed tau aggregates [1]) was “reduction in exogenous preformed tau aggregates”.

With “WQIVYKGSVWMINKGSGSKFERQKILDQRFFE (HET_CMA1) [HET-CMA1]” the “fraction of cells with green spots” value (preformed tau aggregates [1]) was “reduced tau aggregation” and the “fraction … (exogenous preformed tau aggregates)” value (preformed tau aggregates [1]) was “reduction in exogenous preformed tau aggregates”.

In the case of “WQIVYKGSVWMINKGSGSNLLRLTGW (HET_JAV) [HET-JAV]”, the “fraction of cells with green spots” value (preformed tau aggregates [1]) is reported as “reduced tau aggregation”, the “fraction … (exogenous preformed tau aggregates)” value (preformed tau aggregates [1]) is reported as “reduction in exogenous preformed tau aggregates” and the “level of tau pathology spread to the contralateral hippocampus (AT8-positive inclusions, IHC)” value (preformed tau aggregates [3]) is reported as “reduced”.

For “WQIVYKGSVWMINKGSGSVKKDQGSKFERQ (HET_CMA2) [HET-CMA2]”, the “fraction of cells with green spots” value (preformed tau aggregates [1]) was “reduced tau aggregation” and the “fraction … (exogenous preformed tau aggregates)” value (preformed tau aggregates [1]) was “reduction in exogenous preformed tau aggregates”.
